# From the RNAGym collection of RNA variant scans (doi:10.1073/pnas.2313332121)
# B1: TPR t1 (parent)
# chain: GACCAAUCUGCCCUCAGAGCUCGAGAACAUCUUCGGAUGCAGAGGAGGCAGGCUUCGGUGGCGCGAUAGCGCCAACGUCCUCAACCUCCAAUGCAUCCCACCACAUGAUGAUGCCUGAAGAGCCUUGGUUUUUUG
# Variants of: B1
# Assay: polymerase ribozyme fitness, log enrichment relative to wild type (log ratio); higher = more active; in vitro selection for triplet polymerase activity
# How it was run: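 Frozen incubation at −7 °C formed the core of a single, triplicate in vitro selection round applied to PCR-built, transcribed mutant libraries of each subunit of a heterodimeric triplet polymerase ribozyme. Extended constructs were gel-excised, captured with streptavidin beads and amplified by RT-PCR, and input and output libraries were Illumina-sequenced with a filter of ≥10 input reads and ≥1 read per output. Fitness is the logarithm of genotype enrichment relative to wild-type enrichment, with inverse-variance-weighted replicate averaging, and the logarithm is base 2.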
row,Variant,polymerase ribozyme fitness (log ratio)
1,G47U C101U C114U A118U,-5.66
2,G48A C72U U81C C102A A121C,-0.882
3,C49G C70A,-2.2
4,C49G C70G,-4.79
5,C49A C53A C79A C85U A111C,-2.83
6,G47U C94U U106G G117U G120A,-5.71
7,G48A G71C G117A,-1.66
8,G48U U54G,-0.42
9,C49U U96C C124A,1.03
10,C49G C62G,-3.46
11,C49G C98G,-4.99
12,C49U G63A U67C C85U G93U G110C C124A,-8.14
13,A50C C56U,-0.0268
14,G48U G57U G63A U96G A100C C102G G120C,-6.73
15,G48A C101U,-2.29
16,C49U U106A C114U,-4.43
17,C49G C85G U116G,-3.63
18,C49G G51C A119U U133C,-3.18
19,C49U C72U C94G,-1.72
20,C49U G61U C70G U81G C115G C123U U130A,-5.96
21,G48A U106A,-0.42

row,Variant,polymerase ribozyme fitness (log ratio)
1,G47U G58C,-0.433
2,G48A U130C,-0.486
3,G48A U130G,-1.37
4,C49U G128U,-2.9
5,G48A U112A U125G G127C,-1.12
6,G48A C56G,-0.92
7,G48U C72G G122A,-2.3
8,G48A G61U C64U A84U,-3.63
9,G48A G93A U96C C99U,-4.9
10,C49U G57U C79A,-3.24
11,C49G G60A A75U G93U,-3.65
12,G48C A74U,-0.843
13,G48U C73U U109A G110U A119U,-4.88
14,G48U C70U C114A,-2.21
15,G48A C88U U96A,-1.74
16,G48U G60C C70U U78G,-5.9
17,C49U G71C G117U G120A C124A,-2.34
18,G47U G120U,-0.0894
19,G47C U125G,-3.03
20,G48A C82U,-0.23
21,G48A C62U C115U,-3.7

row,Variant,polymerase ribozyme fitness (log ratio)
1,C49U A121C,1.39
2,C49A G77A U106C C114A,-2.9
3,G47U U78C,-1.44
4,G48A C64U C89G C114U U126G,-6.43
5,G48U U55C,-1.53
6,G48U C94G,-1.44
7,G48U C94U,-1.2
8,C49A A91U A95G A100C,-6.08
9,G48U G63U C86U,-1.38
10,G48A U87A,-0.877
11,C49A C94U U116A,-3.07
12,G48C C82A A84C,-1.03
13,C49G C101A C124U,0.417
14,C49U G63A,-1.67
15,G47U C56G,-3.09
16,G47U C56U,-1.38
17,C49U A90G C124A,1.48
18,G47U G71U A119U C123A,-2.79
19,G48U U78C,-1.27
20,C49A C94A A103C,-5.92
21,G47U C53U A111G,-1.54

row,Variant,polymerase ribozyme fitness (log ratio)
1,C49U C72G C89U,-1.07
2,C49G G69U G117A,-1.13
3,G47U C73A U78C C88U A95G,-4.73
4,G47U C104U,-1.55
5,C49U A74C,-0.435
6,G48A U133G,-1.38
7,C49U G60A A83G U133A,-0.755
8,G47U G135A,-2.09
9,G48C C49A U78G U81G,-1.87
10,G48A C76U C85G C89A U96C,-5.66
11,G47U G57U G93U,-3.51
12,G48A G52A,-0.371
13,G48C G60C G110A,-2.42
14,G47U U131G,-1.85
15,G48U G57C U130C,0.0456
16,G47U G71A U112C,-0.298
17,G48C C123U,-0.702
18,C49G G61C,-2.12
19,C49U A119U C123U,0.0952
20,C49U C53U G60A G122A U133G,-1.32
